These results are taken from US20150217006A1 (IMMUNOMEDICS, published 2015).

Assay [1] has as its target T1, gastrin-releasing peptide receptor (GRPR) (human, UniProt P30550 1-384).
T1 construct: whole, on cells; also called GRP receptor; GRP-receptor
Briefly: competition with 125I-Bombesin on PC-3 cells, inhibitor 56 to 0.44 nM. The procedure: (§1) We used IMP333 as a non-specific control. […] A range of 56 to 0.44 nM was used as our inhibitory concentrations.

Assay [2] has as its target T1, gastrin-releasing peptide receptor …. The assay can be described thus: competition with 125I-BBN on PC-3 cells, repeat experiment, inhibitor 250 to 2 nM. The procedure:
as §1
This experiment was repeated using a commercially available BBN peptide. We increased the amount of inhibitory peptide from 250 to 2 nM to block the ¹²⁵I-BBN from binding to PC-3 cells.

T1 sequence (P30550 whole entry): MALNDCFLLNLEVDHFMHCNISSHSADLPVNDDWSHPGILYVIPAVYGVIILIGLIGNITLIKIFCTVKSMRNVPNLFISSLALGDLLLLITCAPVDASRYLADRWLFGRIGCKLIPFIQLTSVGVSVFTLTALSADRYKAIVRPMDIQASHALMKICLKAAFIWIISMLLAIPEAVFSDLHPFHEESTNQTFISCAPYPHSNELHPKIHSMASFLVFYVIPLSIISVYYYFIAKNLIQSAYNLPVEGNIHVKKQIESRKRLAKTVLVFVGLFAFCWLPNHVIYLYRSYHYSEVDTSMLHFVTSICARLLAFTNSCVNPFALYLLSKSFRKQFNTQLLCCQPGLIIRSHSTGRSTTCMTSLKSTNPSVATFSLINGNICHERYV

B1: IMP468 (NOTA-NH-(CH2)7CO-Gln-Trp-Val-Trp-Ala-Val-Gly-His-Leu-Met-NH2) (peptide)
peptide: QWVWAVGHLM
HELM: PEPTIDE1{[O=C(O)CN1CCN(CC(=O)O)CCN(CC(=O)[*:2])CC1].[O=C(CCCCCCCN[*:1])[*:2]].Q.W.V.W.A.V.G.H.L.M.[am]}$$$$V2.0
SMILES: CSCC[C@H](NC(=O)[C@H](CC(C)C)NC(=O)[C@H](Cc1c[nH]cn1)NC(=O)CNC(=O)[C@@H](NC(=O)[C@H](C)NC(=O)[C@H](Cc1c[nH]c2ccccc12)NC(=O)[C@@H](NC(=O)[C@H](Cc1c[nH]c2ccccc12)NC(=O)[C@H](CCC(N)=O)NC(=O)CCCCCCCNC(=O)CN1CCN(CC(=O)O)CCN(CC(=O)O)CC1)C(C)C)C(C)C)C(N)=O
notes: also called NOTA-conjugated bombesin derivative
On to B1, for which the figures for the IC50 in assay [1] and in assay [2] were 21.5 nM and 35.9 nM, respectively.
